Test results from patent US20230151091A1 (NEW YORK UNIVERSITY, published 2023).
Where a chain is given by its changes, count along the chain named. Each block holds one binder with its values, some of them ahead of it.

How the values were obtained:
human MuSK [1] = target: T1, human MuSK (human, UniProt O15146 24-495); test: Biacore T200, off rate at pH 5.5 against pH 7.4
T1 construct: Recombinant protein coated on ELISA plates (R&D Systems cat. 10189-MK) or on the Biacore chip; also called human muscle-specific tyrosine protein kinase; full length human MuSK
T1 sequence: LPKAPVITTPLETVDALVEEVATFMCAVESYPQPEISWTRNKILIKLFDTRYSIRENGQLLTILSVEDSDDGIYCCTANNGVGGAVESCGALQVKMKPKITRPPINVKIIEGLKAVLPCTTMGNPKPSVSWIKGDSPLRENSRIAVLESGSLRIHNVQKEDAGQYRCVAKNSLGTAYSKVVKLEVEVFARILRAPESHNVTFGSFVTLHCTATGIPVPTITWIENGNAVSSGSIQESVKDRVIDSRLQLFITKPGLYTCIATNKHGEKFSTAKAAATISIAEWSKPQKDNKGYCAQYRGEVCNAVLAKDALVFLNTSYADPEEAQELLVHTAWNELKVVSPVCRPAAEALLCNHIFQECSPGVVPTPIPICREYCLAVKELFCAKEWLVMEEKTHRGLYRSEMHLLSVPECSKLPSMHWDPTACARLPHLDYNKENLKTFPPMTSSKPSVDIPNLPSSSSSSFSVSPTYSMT
Protocol: (§1) In order to study pH dependent binding of the antibodies described herein to MuSK, a Biacore T200 was used. Briefly, a CMS chip was coated with human and mouse MuSK (200RU) and 22.2 nM of Fab was applied and kinetic parameters calculated. Association was done at pH7.4, dissociation was done at pH 7.4 and also at pH 5.5. The following Fabs were tested, X2, X2m4, X3, X9, X17, 3B2 and 3B2g2m1 (Table 10 and FIG. 23). […] Binding affinity at pH 5.5 is very low, resulting in a rapid dissociation at endosomal pH allowing 3B2g2m1 to recycle.

mouse MuSK [2] = target: T2, mouse MuSK (mouse, UniProt Q61006 22-494, limits assumed); test: Biacore T200, off rate at pH 5.5 against pH 7.4
T2 construct: Coated on ELISA plates or on the Biacore chip; also called full length mouse MuSK; mouse MuSK (in house produced in HEK293 cells)
T2 sequence (looked up): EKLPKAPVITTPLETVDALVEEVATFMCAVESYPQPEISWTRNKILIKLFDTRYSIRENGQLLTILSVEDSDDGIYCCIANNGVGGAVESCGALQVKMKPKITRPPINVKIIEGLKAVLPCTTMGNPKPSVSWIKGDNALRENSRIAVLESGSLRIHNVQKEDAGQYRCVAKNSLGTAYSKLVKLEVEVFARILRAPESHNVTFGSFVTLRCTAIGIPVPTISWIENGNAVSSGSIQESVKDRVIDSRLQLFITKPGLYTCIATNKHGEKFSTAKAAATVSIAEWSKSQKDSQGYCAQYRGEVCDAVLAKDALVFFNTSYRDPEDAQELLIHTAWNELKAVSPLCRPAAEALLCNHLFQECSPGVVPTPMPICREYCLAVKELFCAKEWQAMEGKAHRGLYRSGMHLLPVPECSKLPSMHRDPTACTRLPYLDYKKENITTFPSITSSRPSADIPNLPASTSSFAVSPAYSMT
Protocol: as §1

human MuSK [3] = target: T1, human MuSK; test: Biacore T200, MuSK on chip (200RU), 22.2 nM Fab, dissociation pH 5.5
Protocol: as §1

mouse MuSK [4] = target: T2, mouse MuSK; test: as above
Protocol: as §1

human MuSK [5] = target: T1, human MuSK; test: Biacore T200, MuSK on chip (200RU), 22.2 nM Fab, dissociation pH 7.4
Protocol: as §1

mouse MuSK [6] = target: T2, mouse MuSK; test: as above
Protocol: as §1

[7] = target: T3, mFz: Fz domain and C-terminal flanking sequence of mouse MuSK (D307 to T494) with C-terminal Avi- and … (mouse, UniProt Q61006 307-494, limits assumed, biotinylated in vitro using the BirA enzyme); test: bead-binding assay, IgG format: biotinylated antigen on streptavidin beads, flow cytometry, 1:1 fit; average ± s.d., n=3
T3 construct: also called mouse Fz; not shown: Avi- and His6-tags
T3 sequence (looked up): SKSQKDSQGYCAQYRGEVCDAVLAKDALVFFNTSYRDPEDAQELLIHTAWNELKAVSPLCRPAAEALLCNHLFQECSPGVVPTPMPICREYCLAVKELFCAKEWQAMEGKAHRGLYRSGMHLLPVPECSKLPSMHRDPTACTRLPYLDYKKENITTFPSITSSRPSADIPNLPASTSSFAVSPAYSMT

[8] = target: T4, hECD: full-length extracellular region of human MuSK (E22 to T495) with C-terminal Avi- and His6-tags (human, UniProt O15146 22-495, biotinylated in vitro using the BirA enzyme); test: as above
T4 construct: also called human ECD; not shown: Avi- and His6-tags
T4 sequence: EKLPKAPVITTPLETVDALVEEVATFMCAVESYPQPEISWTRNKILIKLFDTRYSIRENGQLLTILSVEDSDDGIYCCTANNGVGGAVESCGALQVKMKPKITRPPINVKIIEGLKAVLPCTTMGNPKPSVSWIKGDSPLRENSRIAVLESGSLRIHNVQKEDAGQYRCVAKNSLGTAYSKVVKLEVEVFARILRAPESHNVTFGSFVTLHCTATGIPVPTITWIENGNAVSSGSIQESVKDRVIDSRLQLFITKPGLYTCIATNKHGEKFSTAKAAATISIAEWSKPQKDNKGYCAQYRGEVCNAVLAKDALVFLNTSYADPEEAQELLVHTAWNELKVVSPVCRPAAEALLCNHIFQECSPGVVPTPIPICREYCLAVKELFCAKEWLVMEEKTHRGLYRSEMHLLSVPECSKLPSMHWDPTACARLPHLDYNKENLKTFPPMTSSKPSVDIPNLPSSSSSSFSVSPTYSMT

[9] = target: T5, mECD: full-length extracellular region of mouse MuSK (E22 to T494) with C-terminal Avi- and His6-tags (mouse, UniProt Q61006 22-494, biotinylated in vitro using the BirA enzyme); test: as above
T5 construct: range 22-494; also called mouse ECD; not shown: Avi- and His6-tags
T5 sequence (looked up): T2 sequence (looked up)

[10] = target: T6, hFz: Fz domain and C-terminal flanking sequence of human MuSK (K314-T495) with C-terminal Avi- and His6-tags (human, UniProt O15146 314-495, biotinylated in vitro using the BirA enzyme); test: as above
T6 construct: also called human Fz; not shown: Avi- and His6-tags
T6 sequence: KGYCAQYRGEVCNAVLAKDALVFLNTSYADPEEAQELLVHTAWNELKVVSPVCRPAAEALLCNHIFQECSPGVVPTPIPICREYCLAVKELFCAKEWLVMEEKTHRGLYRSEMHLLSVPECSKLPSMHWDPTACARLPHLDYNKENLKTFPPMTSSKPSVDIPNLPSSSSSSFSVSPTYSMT

Ratio pH 5.5/7.4 of off rate (human MuSK [1]): 6.1 | Ratio pH 5.5/7.4 of off rate (mouse MuSK [2]): 8.9 | koff (human MuSK [3]): 0.0288 s⁻¹ | koff (mouse MuSK [4]): 0.0679 s⁻¹ | koff (human MuSK [5]): 0.00472 s⁻¹ | koff (mouse MuSK [6]): 0.00766 s⁻¹
B1: 3B2g2m1 Fab (Fab, V domains shown)
VH: EVQLLESGGGLVQPGGSLRLSCAASGFTFSDYGMSWVRQAPGKGLEWVSAIPWSGGSTYYKESVKGRFTISRDNSKNTLYLQMNSLRAEDTAVYYCAKRSGRIAFGALDAWGQGTLVTVSS
VL: QTVVTQEPSFSVSPGGTVTLTCGLSSGSVTSSNYPDWYQQTPGQAPRTLIYSTDSRHSGVPDRFSGSILGNKAALTITGAQADDESDYYCGLYSYSGSKNYVFGGGTKLTVL
notes: Fab format

Ratio pH 5.5/7.4 of off rate (human MuSK [1]): 0.7 | Ratio pH 5.5/7.4 of off rate (mouse MuSK [2]): 1.2 | koff (human MuSK [3]): 0.00586 s⁻¹ | koff (mouse MuSK [4]): 0.00416 s⁻¹ | koff (human MuSK [5]): 0.00867 s⁻¹ | koff (mouse MuSK [6]): 0.00337 s⁻¹
B2: X2m4 Fab (Fab, V domains shown)
VH: EVQLVESGGGLVQPGGSLRLSCAASGFTVSSSSIHWVRQAPGKGLEWVASISSSYGSTSYADSVKGRFTISADTSKNTAYLQMNSLRAEDTAVYYCARSEGDRYVSGYSGLDYWGQGTLVTVSS
VL: DIQMTQSPSSLSASVGDRVTITCRASQSVSSAVAWYQQKPGKAPKLLIYSASSLYSGVPSRFSGSRSGTDFTLTISSLQPEDFATYYCQQSGVWLITFGQGTKVEIK
notes: Fab format

Ratio pH 5.5/7.4 of off rate (human MuSK [1]): 1.4 | Ratio pH 5.5/7.4 of off rate (mouse MuSK [2]): 7.1 | koff (human MuSK [3]): 0.00083 s⁻¹ | koff (mouse MuSK [4]): 0.00105 s⁻¹ | koff (human MuSK [5]): 0.00059 s⁻¹ | koff (mouse MuSK [6]): 0.00015 s⁻¹
B3: X9 Fab (Fab, V domains shown)
VH: EVQLVESGGGLVQPGGSLRLSCAASGFTFSSSSIHWVRQAPGKGLEWVASIYSSSGSTYYADSVKGRFTISADTSKNTAYLQMNSLRAEDTAVYYCARSGGEFYITSYYGMDYWGQGTLVTVSS
VL: B2 VL with G92S, V93S, W94S
notes: Fab format

Kd [7]: 0.68 nM | Kd [8]: 0.86 nM | Kd [9]: 1.04 nM | Kd [10]: 0.56 nM
B4: hIgG1-X17 (antibody, V domains shown)
VH: EVQLVESGGGLVQPGGSLRLSCAASGFTISYSSIHWVRQAPGKGLEWVASIYSSSGSTYYADSVKGRFTISADTSKNTAYLQMNSLRAEDTAVYYCARGDHGYYVFGYLGMDYWGQGTLVTVSS
VL: DIQMTQSPSSLSASVGDRVTITCRASQSVSSAVAWYQQKPGKAPKLLIYSASSLYSGVPSRFSGSRSGTDFTLTISSLQPEDFATYYCQQSYKPGALITFGQGTKVEIK
notes: human IgG1 Fc containing LALA mutations; also called hIgG-X17; X17 in human IgG1 format
